Source: the RNAGym collection of RNA variant scans (doi:10.7554/elife.80360)

B1: Hairpin Ribozyme (parent)
chain: GUCCUCUUUCACGUGCGCGUGAAAGAGAGAAGUGAACCAGAGAAACACACGUUGUGGUAUAUUACCUGGUA

Variants of: B1
Assay: self-cleavage, relative activity (ratio to wild type); higher = more cleavage; co-transcriptional

Variant | self-cleavage
GUCCUCUUUCACCUGCGCGUGAAAGAGAGAAGUGAACCAGAGAAACACACGUUGUGGUAUAUUACCUGUUA [G13C G69U] | 0.217
GUCCUCUUUCACCCGCGCGUGAAAGAGAGAAGUGAACCAGAGAAACACACGUUGUGGUAUAUUACCUGGUA [G13C U14C] | 0.583
GUCCUCUUUCACCUGCGCGUGAAAGAGAGAAGCGAACCAGAGAAACACACGUUGUGGUAUAUUACCUGGUA [G13C U33C] | 0.296
GUCCUCUUUCACCUGCGCGUGAAAGAGAGAAGUGAACCAGAGAAACACACGAUGUGGUAUAUUACCUGGUA [G13C U52A] | 0.658
GUCCUCUUUCACCUGCGCGUGAAAGAGAGAAGUGAACCAGAGAAACACACGUCGUGGUAUAUUACCUGGUA [G13C U53C] | 0.535
GUCCUCUUUCACCUGCGCGUGAAAGAGAGAAGUGAACCAGAGAAACACACGUUGCGGUAUAUUACCUGGUA [G13C U55C] | 0.0845
GUCCUCUUUCACCUGCGCGUGAAAGAGAGAAGUGAACCAGAGAAACACACGUUGGGGUAUAUUACCUGGUA [G13C U55G] | 0.107
GUCCUCUUUCACCUGCGCGUGAAAGAGAGAAGUGAACCAGAGAAACACACGUUGUGGGAUAUUACCUGGUA [G13C U58G] | 0.398
GUCCUCUUUCACCUGCGCGUGAAAGAGAGAAGUGAACCAGAGAAACACACGUUGUGGUACAUUACCUGGUA [G13C U60C] | 0.912
GUCCUCUUUCACCUGCGCGUGAAAGAGAGAAGUGAACCAGAGAAACACACGUUGUGGUAUACUACCUGGUA [G13C U62C] | 0.147
GUCCUCUUUCACCUGCGCGUGAAAGAGAGAAGUGAACCAGAGAAACACACGUUGUGGUAUAUUACCAGGUA [G13C U67A] | 0.189
GUCCUCUUUCACCUGCGCGUGAAAGAGAGAAGUGAACCAGAGAAACACACGUUGUGGUAUAUUACCUGGGA [G13C U70G] | 0.502
GUCCUCUUUCACUUGCGCGUGGAAGAGAGAAGUGAACCAGAGAAACACACGUUGUGGUAUAUUACCUGGUA [G13U A22G] | 0.659
GUCCUCUUUCACUUGCGCGUGAUAGAGAGAAGUGAACCAGAGAAACACACGUUGUGGUAUAUUACCUGGUA [G13U A23U] | 0.709
GUCCUCUUUCACUUGCGCGUGAACGAGAGAAGUGAACCAGAGAAACACACGUUGUGGUAUAUUACCUGGUA [G13U A24C] | 0.563
GUCCUCUUUCACUUGCGCGUGAAUGAGAGAAGUGAACCAGAGAAACACACGUUGUGGUAUAUUACCUGGUA [G13U A24U] | 0.595
GUCCUCUUUCACUUGCGCGUGAAAGCGAGAAGUGAACCAGAGAAACACACGUUGUGGUAUAUUACCUGGUA [G13U A26C] | 0.416
GUCCUCUUUCACUUGCGCGUGAAAGUGAGAAGUGAACCAGAGAAACACACGUUGUGGUAUAUUACCUGGUA [G13U A26U] | 0.52
GUCCUCUUUCACUUGCGCGUGAAAGAGCGAAGUGAACCAGAGAAACACACGUUGUGGUAUAUUACCUGGUA [G13U A28C] | 0.34
GUCCUCUUUCACUUGCGCGUGAAAGAGAGUAGUGAACCAGAGAAACACACGUUGUGGUAUAUUACCUGGUA [G13U A30U] | 0.164
GUCCUCUUUCACUUGCGCGUGAAAGAGAGACGUGAACCAGAGAAACACACGUUGUGGUAUAUUACCUGGUA [G13U A31C] | 0.133
GUCCUCUUUCACUUGCGCGUGAAAGAGAGAAGUGCACCAGAGAAACACACGUUGUGGUAUAUUACCUGGUA [G13U A35C] | 0.876
GUCCUCUUUCACUUGCGCGUGAAAGAGAGAAGUGGACCAGAGAAACACACGUUGUGGUAUAUUACCUGGUA [G13U A35G] | 0.709
GUCCUCUUUCACUUGCGCGUGAAAGAGAGAAGUGAUCCAGAGAAACACACGUUGUGGUAUAUUACCUGGUA [G13U A36U] | 0.47
GUCCUCUUUCACUUGCGCGUGAAAGAGAGAAGUGAACCAGAGCAACACACGUUGUGGUAUAUUACCUGGUA [G13U A43C] | 0.147
GUCCUCUUUCACUUGCGCGUGAAAGAGAGAAGUGAACCAGAGAACCACACGUUGUGGUAUAUUACCUGGUA [G13U A45C] | 0.141

Variant | self-cleavage
GUCCUCUUUCACUUGCGCGUGAAAGAGAGAAGUGAACCAGAGAAACACUCGUUGUGGUAUAUUACCUGGUA [G13U A49U] | 0.169
GUCCUCUUUCACUUGCGCGUGAAAGAGAGAAGUGAACCAGAGAAACACACGUUGUGGUGUAUUACCUGGUA [G13U A59G] | 0.0932
GUCCUCUUUCACUUGCGCGUGAAAGAGAGAAGUGAACCAGAGAAACACACGUUGUGGUAUCUUACCUGGUA [G13U A61C] | 0.173
GUCCUCUUUCACUUGCGCGUGAAAGAGAGAAGUGAACCAGAGAAACACACGUUGUGGUAUGUUACCUGGUA [G13U A61G] | 0.147
GUCCUCUUUCACUUGAGCGUGAAAGAGAGAAGUGAACCAGAGAAACACACGUUGUGGUAUAUUACCUGGUA [G13U C16A] | 0.558
GUCCUCUUUCACUUGCGCGUGAAAGAGAGAAGUGAACAAGAGAAACACACGUUGUGGUAUAUUACCUGGUA [G13U C38A] | 0.188
GUCCUCUUUCACUUGCGCGUGAAAGAGAGAAGUGAACUAGAGAAACACACGUUGUGGUAUAUUACCUGGUA [G13U C38U] | 0.231
GUCCUCUUUCACUUGCGCGUGAAAGAGAGAAGUGAACCAGAGAAAGACACGUUGUGGUAUAUUACCUGGUA [G13U C46G] | 0.121
GUCCUCUUUCACUUGCGCGUGAAAGAGAGAAGUGAACCAGAGAAAUACACGUUGUGGUAUAUUACCUGGUA [G13U C46U] | 0.137
GUCCUCUUUCACUUGCGCGUGAAAGAGAGAAGUGAACCAGAGAAACAAACGUUGUGGUAUAUUACCUGGUA [G13U C48A] | 0.0958
GUCCUCUUUCACUUGCGCGUGAAAGAGAGAAGUGAACCAGAGAAACAUACGUUGUGGUAUAUUACCUGGUA [G13U C48U] | 0.125
GUCCUCUUUCACUUGCGCGUGAAAGAGAGAAGUGAACCAGAGAAACACAAGUUGUGGUAUAUUACCUGGUA [G13U C50A] | 0.213
GUCCUCUUUCACUUGCGCGUGAAAGAGAGAAGUGAACCAGAGAAACACAGGUUGUGGUAUAUUACCUGGUA [G13U C50G] | 0.259
GUCCUCUUUCACUUGCGCGUGAAAGAGAGAAGUGAACCAGAGAAACACACGUUGUGGUAUAUUAGCUGGUA [G13U C65G] | 0.193
GUCCUCUUUCACUUGCGCGUGAAAGAGAGAAGUGAACCAGAGAAACACACGUUGUGGUAUAUUAUCUGGUA [G13U C65U] | 0.301
GUCCUCUUUCACUUGCGCGUGAAAGAGAGAAGUGAACCAGAGAAACACACGUUGUGGUAUAUUACUUGGUA [G13U C66U] | 0.502
GUCCUCUUUCACUUGCACGUGAAAGAGAGAAGUGAACCAGAGAAACACACGUUGUGGUAUAUUACCUGGUA [G13U G17A] | 0.69
GUCCUCUUUCACUUGCGCUUGAAAGAGAGAAGUGAACCAGAGAAACACACGUUGUGGUAUAUUACCUGGUA [G13U G19U] | 0.895
GUCCUCUUUCACUUGCGCGUUAAAGAGAGAAGUGAACCAGAGAAACACACGUUGUGGUAUAUUACCUGGUA [G13U G21U] | 0.53
GUCCUCUUUCACUUGCGCGUGAAAAAGAGAAGUGAACCAGAGAAACACACGUUGUGGUAUAUUACCUGGUA [G13U G25A] | 0.559
GUCCUCUUUCACUUGCGCGUGAAAUAGAGAAGUGAACCAGAGAAACACACGUUGUGGUAUAUUACCUGGUA [G13U G25U] | 0.527
GUCCUCUUUCACUUGCGCGUGAAAGAGAAAAGUGAACCAGAGAAACACACGUUGUGGUAUAUUACCUGGUA [G13U G29A] | 0.157
GUCCUCUUUCACUUGCGCGUGAAAGAGACAAGUGAACCAGAGAAACACACGUUGUGGUAUAUUACCUGGUA [G13U G29C] | 0.133
GUCCUCUUUCACUUGCGCGUGAAAGAGAGAAUUGAACCAGAGAAACACACGUUGUGGUAUAUUACCUGGUA [G13U G32U] | 0.157
GUCCUCUUUCACUUGCGCGUGAAAGAGAGAAGUAAACCAGAGAAACACACGUUGUGGUAUAUUACCUGGUA [G13U G34A] | 1.1
GUCCUCUUUCACUUGCGCGUGAAAGAGAGAAGUCAACCAGAGAAACACACGUUGUGGUAUAUUACCUGGUA [G13U G34C] | 0.998

Variant | self-cleavage
GUCCUCUUUCACUUGCGCGUGAAAGAGAGAAGUUAACCAGAGAAACACACGUUGUGGUAUAUUACCUGGUA [G13U G34U] | 1.12
GUCCUCUUUCACUUGCGCGUGAAAGAGAGAAGUGAACCACAGAAACACACGUUGUGGUAUAUUACCUGGUA [G13U G40C] | 0.122
GUCCUCUUUCACUUGCGCGUGAAAGAGAGAAGUGAACCAUAGAAACACACGUUGUGGUAUAUUACCUGGUA [G13U G40U] | 0.153
GUCCUCUUUCACUUGCGCGUGAAAGAGAGAAGUGAACCAGAAAAACACACGUUGUGGUAUAUUACCUGGUA [G13U G42A] | 0.16
GUCCUCUUUCACUUGCGCGUGAAAGAGAGAAGUGAACCAGAUAAACACACGUUGUGGUAUAUUACCUGGUA [G13U G42U] | 0.289
GUCCUCUUUCACUUGCGCGUGAAAGAGAGAAGUGAACCAGAGAAACACACGUUCUGGUAUAUUACCUGGUA [G13U G54C] | 0.293
GUCCUCUUUCACUUGCGCGUGAAAGAGAGAAGUGAACCAGAGAAACACACGUUGUAGUAUAUUACCUGGUA [G13U G56A] | 0.127
GUCCUCUUUCACUUGCGCGUGAAAGAGAGAAGUGAACCAGAGAAACACACGUUGUUGUAUAUUACCUGGUA [G13U G56U] | 0.135
GUCCUCUUUCACUUGCGCGUGAAAGAGAGAAGUGAACCAGAGAAACACACGUUGUGAUAUAUUACCUGGUA [G13U G57A] | 0.123
GUCCUCUUUCACUUGCGCGUGAAAGAGAGAAGUGAACCAGAGAAACACACGUUGUGGUAUAUUACCUAGUA [G13U G68A] | 0.207
GUCCUCUUUCACUUGCGCGUGAAAGAGAGAAGUGAACCAGAGAAACACACGUUGUGGUAUAUUACCUGAUA [G13U G69A] | 0.312
GUCCUCUUUCACUAGCGCGUGAAAGAGAGAAGUGAACCAGAGAAACACACGUUGUGGUAUAUUACCUGGUA [G13U U14A] | 0.88
GUCCUCUUUCACUGGCGCGUGAAAGAGAGAAGUGAACCAGAGAAACACACGUUGUGGUAUAUUACCUGGUA [G13U U14G] | 0.729
GUCCUCUUUCACUUGCGCGGGAAAGAGAGAAGUGAACCAGAGAAACACACGUUGUGGUAUAUUACCUGGUA [G13U U20G] | 0.815
GUCCUCUUUCACUUGCGCGUGAAAGAGAGAAGUGAACCAGAGAAACACACGAUGUGGUAUAUUACCUGGUA [G13U U52A] | 0.83
GUCCUCUUUCACUUGCGCGUGAAAGAGAGAAGUGAACCAGAGAAACACACGUGGUGGUAUAUUACCUGGUA [G13U U53G] | 0.716
GUCCUCUUUCACUUGCGCGUGAAAGAGAGAAGUGAACCAGAGAAACACACGUUGGGGUAUAUUACCUGGUA [G13U U55G] | 0.124
GUCCUCUUUCACUUGCGCGUGAAAGAGAGAAGUGAACCAGAGAAACACACGUUGUGGGAUAUUACCUGGUA [G13U U58G] | 0.645
GUCCUCUUUCACUUGCGCGUGAAAGAGAGAAGUGAACCAGAGAAACACACGUUGUGGUAAAUUACCUGGUA [G13U U60A] | 0.696
GUCCUCUUUCACUUGCGCGUGAAAGAGAGAAGUGAACCAGAGAAACACACGUUGUGGUACAUUACCUGGUA [G13U U60C] | 0.902
GUCCUCUUUCACUUGCGCGUGAAAGAGAGAAGUGAACCAGAGAAACACACGUUGUGGUAGAUUACCUGGUA [G13U U60G] | 0.404
GUCCUCUUUCACUUGCGCGUGAAAGAGAGAAGUGAACCAGAGAAACACACGUUGUGGUAUAUAACCUGGUA [G13U U63A] | 0.103
GUCCUCUUUCACUUGCGCGUGAAAGAGAGAAGUGAACCAGAGAAACACACGUUGUGGUAUAUCACCUGGUA [G13U U63C] | 0.181
GUCCUCUUUCACUUGCGCGUGAAAGAGAGAAGUGAACCAGAGAAACACACGUUGUGGUAUAUUACCAGGUA [G13U U67A] | 0.257
